Laboratory results from patent publication US8486893B2, “Treatment of conditions involving demyelination” (Biogen Idec MA Inc., priority 2004, dated 2013).

How the values were obtained:
spinal cord injury rats = test: Spinal cord injury (dorsal hemisection T6/T7), intrathecal mini-osmotic pump; assay type: in vivo, rat
Method: Spinal cord injury was induced in adult female Long Evans rats (190-210 g; Charles River). A dorsal hemisection was performed at T6/T7, completely interrupting the main dorsomedial and the minor dorsolateral corticospinal tract (CST) components. The cord was sterotaxically transected at a depth of 1.8 mm from the surface using a microscalpel. […] Postoperative care comprised analgesia (Buprenorphine/Buprenex, Reckitt Benckiset Healthcare Ltd., 0.05 mg/kg subcutaneously) every 8-12 hours for 3 days and antibiotic treatment (ampicillin, Bristol Myers Squibb, 100 mg/kg subcutaneously twice daily) for 7 days after surgery. Bladders were expressed manually twice a day for the duration of the study (4 weeks) or until return of function. On completion of the study, rats were anesthetized and trans-cardially perfused with heparinized saline followed by 4% paraformaldehyde (PFA). The spinal cords were removed, embedded in paraffin, and 10 μm sections were cut from for histological analysis.
To quantify apoptotic cell death after SCI, animals were euthanized 3 or 7 days after SCI and stained using anti-activated-Caspase-3 antibody (Cell Signaling Technologies) and TUNEL staining (Promega). The sections were also stained with anti-NeuN antibody (Chemicon) and anti-CC1 antibody (Calbiochem) to identify neurons and oligodendrocytes, respectively.

cuprizone-treated mice = test: Cuprizone demyelination model, stereotactic injection into corpus callosum; assay type: in vivo; conditions: injected into corpus callosum at 2, 2.5 and 3 weeks of cuprizone feeding
Text: Adult wild-type C57Bl/6 male mice were fed cuprizone (0.2% milled with ground mouse chow by weight) for 6 weeks to induce demyelination within the corpus callosum. Sp35-Fc was stereotactically injected into the demyelinating corpus callosum at 2, 2.5, and 3 weeks of cuprizone feeding. Control mice were stereotactically injected at the same intervals with sterilized media containing no Sp35-Fc. After 6 weeks of cuprizone feeding, the mice were returned to a normal diet for 2, 4 and 6 weeks (ground mouse chow only) to allow remyelination.
The cuprizone-treated mice were anesthetized with ketamine (80 mg/kg body weight) and xylazine (10 mg/kg body weight) and positioned in an immobilization apparatus designed for stereotactic surgery (David Kopf Instruments). The scalp was opened and the sterile compounds injected (1 μM in […] of HBSS) unilaterally into the acutely demyelinated corpus callosum of the wild-type recipient mice with a […] Hamilton syringe using stereotactic coordinates of 0.7 mm posterior and 0.3 mm lateral to bregma at a depth of 1.7 mm (Messier et al., Pharmacol. Biochem. Behav. 63(2): 313-18 (1999)). Additionally, control recipient mice were stereotactically injected with HBSS containing no compounds. The opening in the skull was filled with Gelfoam, and the area was swabbed with penicillin and streptomycin (Gibco) and the wound was sutured. […]

A2B5+ oligodendrocytes = test: Differentiation of A2B5+ oligodendrocytes treated with Sp35-Fc (O4 staining); assay type: cell-based, rat; conditions: increasing concentrations, versus control-Fc, FIG. 8
Method: Enriched populations of oligodendrocytes were grown from female Long Evans P2 rats as described by Conn, Meth. Neurosci. 2:1-4 (Academic Press; 1990) with modifications as follows. Briefly, the forebrain was dissected and placed in Hank's buffered salt solution (HBSS; Invitrogen). The tissue was cut into 1-mm fragments and was incubated at 37° C. for 15 min in 0.01% trypsin and 10 μg/ml DNase. Dissociated cells were plated on poly-L-lysine-coated T75 tissue culture flasks and were grown at 37° C. for 10 d in DMEM medium with 20% fetal calf serum (Invitrogen). Oligodendrocyte precursors (A2B5+) were collected by shaking the flask overnight at 200 rpm at 37° C., resulting in a 95% pure population. […] These differentiation states are readily apparent from changes in morphology: A2B5^+ cells are bipolar in shape, O4^+ premyelinating oligodendrocytes have longer and more branched processes and MBP^+ mature oligodendrocytes contain myelin sheet structures between processes.
A2B5^+ oligodendrocytes, prepared as described in Example 1, were treated with increasing concentrations of Sp35-Fc or control-Fc for 3 days (Sp35-Fc was prepared as described in Example 2). […] After 48 h (72 h for RNAi), cultures were stained with antibody to O4, and the number of total O4+ and mature O4+ oligodendrocytes was quantified. Samples were analyzed in duplicate. […]

B1: Sp35-Fc: extra-cellular portion of human Sp35 (residues 1-532) fused to the hinge and Fc region of human IgG1 (protein)
chain: TGCPPRCECSAQDRAVLCHRKRFVAVPEGIPTETRLLDLGKNRIKTLNQDEFASFPHLEELELNENIVSAVEPGAFNNLFNLRTLGLRSNRLKLIPLGVFTGLSNLTKLDISENKIVILLDYMFQDLYNLKSLEVGDNDLVYISHRAFSGLNSLEQLTLEKCNLTSIPTEALSHLHGLIVLRLRHLNINAIRDYSFKRLYRLKVLEISHWPYLDTMTPNCLYGLNLTSLSITHCNLTAVPYLAVRHLVYLRFLNLSYNPISTIEGSMLHELLRLQEIQLVGGQLAVVEPYAFRGLNYLRVLNVSGNQLTTLEESVFHSVGNLETLILDSNPLACDCRLLWVFRRRWRLNFNRQQPTCATPEFVQGKEFKDFPDVLLPNYFTCRRARIRDRKAQQVFVDEGHTVQFVCRADGDPPPAILWLSPRKHLVSAKSNGRLTVFPDGTLEVRYAQVQDNGTYLCIAANAGGNDSMPAHLHVRSYSPDWPHQPNKTFAFISNQPGE
modifications: left off: a dimerising Fc or GST
notes: extra-cellular portion of human Sp35 (residues 1-532) fused to the hinge and Fc region of human IgG1
For B1, the “number of activated-Caspase-3-positive neurons and oligodendrocytes versus controls” value (spinal cord injury rats; 3 days after SCI, 0.25 μl/h of 25 μM intrathecal) was “significantly smaller”, the “neuron and oligodendrocyte survival around the lesion site (anti-βIII-tubulin, anti-O4)” value (spinal cord injury rats; four weeks after SCI) was “more neurons and oligodendrocytes survived” and the “axon myelination by IHC (anti-MBP antibody or luxol fast blue)” value (cuprizone-treated mice) was “increased”. For the same molecule, the “mature oligodendrocyte survival (CC1 antibody staining)” value (cuprizone-treated mice; FIG. 12) was “increased mature oligodendrocyte survival”, the “differentiation of A2B5+ cells into O4+ cells” value (A2B5+ oligodendrocytes) was “promoted differentiation of A2B5^+ cells into O4^+ cells in a concentration dependent manner” and the “differentiation of A2B5+ cells into O4+ cells” value (A2B5+ oligodendrocytes; listed as LINGO-1-Fc) was “Dose-dependent differentiation”.
